Laboratory results published in US20160009800A1 (XOMA US, published 2016).
Changes are numbered by the printed parent chain.

B1: Ab031 (antibody, V domains shown)
VH: EVQLLESGGGLVQPGGSLRLSCAASGFTFSSNYMSWVRQAPGKGLEWVSSISGGSTYYADSRKGRFTISRDNSKNTLYLQMNSLRAEDTAVYYCARLDWSSGAFDIWGQGTLVTVSS
VL: QSVLTQPPSASGTPGQRVTISCSGRSSNIGYNYVSWYQQLPGTAPKLLIYGNSNRPSGVPDRFSGSKSGTSASLAISGLRSEDEADYYCAAWDDSLSGPVFGGGTKLTVLG
notes: printed on the sheet as Ab031` with a stray mark; also called XPA.015.037
B2: Ab027 (antibody, V domains shown)
VH: EVQLLESGGGLVQPGGSLGLSCAASGFTFNNYWMSWVRQAPGKGLEWVSYISGSGRTIYYADSVKGRFTISRDNSKNTLYLQMNSLRAEDTAVYYCARVGSSGWYYFDYWGQGTLVTVSS
VL: B1 VL with G30E, Y31N, S97N, P99V
notes: also called XPA.015.042
B3: Ab024 (antibody, V domains shown)
VH: EVQLLESGGGLVQPGGSLRLSCAASGFTFSDYYMSWIRRAPGKGLEWVSRISWNSGSIGYADSLKGRFTISRDNSKNTLYLQMNSLRAEDTAVYYCARERGYGYDYWGQGTLVTVSS
VL: B1 VL with R25T, I29L, Y31S, N32H, Y33T, G51D, S53N, N54E, G98A, P99W
notes: also called XPA.015.022
B4: Ab018 (antibody, V domains shown)
VH: EVQLLESGGGLVQPGGSLRLSCAASGFTFSSYWMSWVRQAPGKGLEWVSGISGSGGYIHYADSVKGRFTISRDDSKNTLYLQMNSLRAEDTAVYYCAREGSGWLVDQWGQGTLVTVSS
VL: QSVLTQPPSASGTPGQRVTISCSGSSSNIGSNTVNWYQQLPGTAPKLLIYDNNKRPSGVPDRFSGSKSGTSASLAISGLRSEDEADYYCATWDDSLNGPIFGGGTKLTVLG
notes: also called XPA.015.139
B5: Ab039 (antibody, V domains shown)
VH: EVQLLESGGGLVQPGGSLRLSCAASGFTFSSYWMSWVRQAPGKGLEWVSGISGSGGYTSYADSVKGRFTISRDNSKNTLYLQMNSLRAEDTAVYYCAKDSSDWYINSWGQGTLVTVSS
VL: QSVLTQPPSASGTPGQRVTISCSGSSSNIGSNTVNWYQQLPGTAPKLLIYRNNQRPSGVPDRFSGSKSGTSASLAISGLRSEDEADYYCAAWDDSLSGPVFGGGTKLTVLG
notes: also called XPA.015.074
B6: Ab028 (antibody, V domains shown)
VH: EVQLLESGGGLVQPGGSLRLSCAASGFTFRNYWMTWVRQAPGKGLEWVANIKQDGSEKYYVDSVKGRSTISRDNSKNTLYLQMNSLRAEDTAVYYCARQVGGGPFDIWGQGTLVTVSS
VL: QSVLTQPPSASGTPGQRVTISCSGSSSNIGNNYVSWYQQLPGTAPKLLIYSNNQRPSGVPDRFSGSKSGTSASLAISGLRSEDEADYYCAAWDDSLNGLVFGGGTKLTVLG
notes: also called XPA.015.059
B7: Ab040 (antibody, V domains shown)
VH: EVQLLESGGGLVQPGGSLRLSCAASGFTFSSYWMSWVRQAPGKGLEWVAVISKDGSSTDYAHSVKGRFTISRDNSKNTLYLQMNSLRAEDTAVYYCARDRDWIPGDVWGQGTLVTVSS
VL: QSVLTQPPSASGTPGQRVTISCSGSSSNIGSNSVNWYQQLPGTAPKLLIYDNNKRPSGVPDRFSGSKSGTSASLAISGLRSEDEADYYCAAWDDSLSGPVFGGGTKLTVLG
notes: also called XPA.015.077
B8: Ab032 (antibody, V domains shown)
VH: EVQLLESGGGLVQPGGSLRLSCAASGFTFSNYAMGWVRQAPGKGLEWVSSISGSGGTTYYADSVKGRFTISRDNSKNTLYLQMNSLRAEDTAVYYCARHKGLQPLDYWGQGTLVTVSS
VL: QSVLTQPPSASGTPGQRVTISCSGSISNIGSNYVSWYQQLPGTAPKLLIYGNSNRPSGVPDRFSGSKSGTSASLAISGLRSEDEADYYCAAWDDSLSPHVVFGGGTKLTVLG
notes: also called XPA.015.093
B9: Ab006 (antibody, V domains shown)
VH: B8 VH
VL: B8 VL
notes: also called XPA.015.013
B10: Ab011 (antibody, V domains shown)
VH: B8 VH with S118F
VL: B8 VL
notes: also called XPA.015.085
B11: Ab009 (antibody, V domains shown)
VH: B8 VH with G15W, L79P
VL: B8 VL
notes: also called XPA.015.075
B12: Ab036 (antibody, V domains shown)
VH: B8 VH
VL: B8 VL with I26S, S31G, Y33S, S35H
notes: also called XPA.015.047
B13: Ab038 (antibody, V domains shown)
VH: EVQLLESGGGLVQPGGSLRLSCAASGFTFSNYAMTWVRQAPGKGLEWVSYIHAGGGTHYANSVKGRFTISRDNSKNTLYLQMNSLRAEDTAVYYCARDLHWEGWGLGFDYWGQGTLVTVSS
VL: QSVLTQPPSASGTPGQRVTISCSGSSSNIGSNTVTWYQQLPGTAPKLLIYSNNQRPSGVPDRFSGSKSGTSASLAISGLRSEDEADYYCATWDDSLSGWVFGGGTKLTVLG
notes: also called XPA.015.065
B14: Ab042 (antibody, V domains shown)
VH: B13 VH
VL: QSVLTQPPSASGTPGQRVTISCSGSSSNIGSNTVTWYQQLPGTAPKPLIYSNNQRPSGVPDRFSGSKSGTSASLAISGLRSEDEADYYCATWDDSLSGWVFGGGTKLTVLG
notes: also called XPA.015.086
B15: Ab014 (antibody, V domains shown)
VH: EVQLLESGGGLVQPGGSLRLSCAASGFTFSNAWMSWVRQAPGKGLEWVSAISGSGGSTYYADSVKGRFTISRDNSKNTLYLQMNSLRAEDTAVYYCAAPTVPYYYYGMDVWGQGTLVTVSS
VL: QSVLTQPPSASGTPGQRVTISCSGCSSNIGNNAVNWYQQLPGTAPKLLIYRSDQRLAGVPDRFSGSKSGTSASLAISGLRSEDEADYYCQSYDSSLIGHWVFGGGTKLTVLG
notes: also called XPA.015.158
B16: Ab002 (antibody, V domains shown)
VH: EVKLVESEEGLVKPGGSLKLSCAASGFTFSNYAMSWVRQTPEKRLEWVATISDGGHYTYYSDTIKGRFTISRDNAKNNLFLQLSHLKSEDTAIYYCARGTVFDYWGQGTTLTVSS
VL: DIQMTQTTSSLSASLGDRVTISCRASQDISNYLNWYQQKPDGTVKLLIYYTSRLHSGVPSRFSGSGSGTDYSLTISNLEPEDIATFYCQQYSDLPYTFGGGTKLEIKR
notes: also called XPA.015.190
B17: Ab017 (antibody, V domains shown)
VH: EVQLLESGGGLVQPGGSLRLSCAASGFTFSSYSMNWVRQAPGKGLEWVSVIYSGDSTYYADSVKGRFTISRDNSKNTLYLQMNSLRAEDTAVYYCARQVRDGDYGDWFDPWGQGTLVTVSS
VL: QSVLTQPPSASGTPGQRVTISCTGSSSNIGAGYDVHWYQQLPGTAPKLLIYGNSNRPSGVPDRFSGSKSGTSASLAISGLRSEDEADYYCAAWDDSLSGWVFGGGTKLTVLG
notes: also called XPA.015.017
B18: Ab030 (antibody, V domains shown)
VH: EVQLLESGGGLVQPGGSLRLSCAASGFTFSSYSMNWVRQAPGKGLEWVSAISGSGGSTYYADSVKGRFTISRDNSKNTLYLQMNSLRAEDTAVYYCARDSWELLGYDAFDIWGQGTLVTVSS
VL: B17 VL with G52D, S54N, N55K, A92S, L97H, S98L, G99H, W100V, V101L
notes: also called XPA.015.036
B19: Ab026 (antibody, V domains shown)
VH: EVQLLESGGGLVQPGGSLRLSCAASGFTFSNYVISWVRQAPGKGLEWVSAISGSGGSTFYPDSVKGRFTISRDNSKNTLYLQMNSLRAEDTAMYYCARVGLSGWYYFDYWGQGTLVTVSS
VL: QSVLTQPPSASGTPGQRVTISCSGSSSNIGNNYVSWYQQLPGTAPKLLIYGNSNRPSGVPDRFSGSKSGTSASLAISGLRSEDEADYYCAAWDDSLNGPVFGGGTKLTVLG
notes: also called XPA.015.026

Biological target: T1, mouse insulin receptor (mouse, UniProt P15208 28-1372)
T1 construct: whole, on cells; also called muINSR; mINSR
Experiment: FACS on mouse INSR; conditions not given on the sheet

binding result	Binder
no binding	B1
no binding	B2
no binding	B3
binds	B4
binds	B5
no binding	B6
binds	B7
binds	B8
binds	B9
binds	B10
binds	B11
binds	B12
binds	B13
no binding	B14
binds	B15
no binding	B16
binds	B17
binds	B18
no binding	B19
